According to patent publication US20170362301A1 (Janssen / Centocor, published 2017):

Columns and labels:
[1] = molecular target: T1, EGFR (form in the assay not stated) (human, UniProt P00533 25-645, limits assumed); assay: ELISA, NEM conjugate 100 nM
[2] = molecular target: T1, EGFR (form in the assay not stated); assay: ELISA, NEM conjugate 500 nM
[3] = molecular target: T1, EGFR (form in the assay not stated); assay: ELISA, NEM conjugate 10 nM

Binder	binding ratio vs parent P54AR4-83v2 [1] [ratio]	binding ratio vs parent P54AR4-83v2 [2] [ratio]	binding ratio vs parent P54AR4-83v2 [3] [ratio]
P54AR4-83v2 A3C, NEM conjugate (designed binder, NEM on Cys 3, His-tagged) LPCPKNLVVSEVTEDSARLSWDDPWAFYESFLIQYQESEKVGEAIVLTVPGSERSYDLTGLKPGTEYTVSIYGVHNVYKDTNMRGLPLSAIFTT	0.88	0.82	0.34
P54AR4-83v2 A90C, NEM conjugate (designed binder, NEM on Cys 90, His-tagged) LPAPKNLVVSEVTEDSARLSWDDPWAFYESFLIQYQESEKVGEAIVLTVPGSERSYDLTGLKPGTEYTVSIYGVHNVYKDTNMRGLPLSCIFTT	1.05	1.01	0.94
P54AR4-83v2 G42C, NEM conjugate (designed binder, NEM on Cys 42, His-tagged) LPAPKNLVVSEVTEDSARLSWDDPWAFYESFLIQYQESEKVCEAIVLTVPGSERSYDLTGLKPGTEYTVSIYGVHNVYKDTNMRGLPLSAIFTT	0.99	0.9	0.84
P54AR4-83v2 E39C, NEM conjugate (designed binder, NEM on Cys 39, His-tagged) LPAPKNLVVSEVTEDSARLSWDDPWAFYESFLIQYQESCKVGEAIVLTVPGSERSYDLTGLKPGTEYTVSIYGVHNVYKDTNMRGLPLSAIFTT	1	0.9	0.9
P54AR4-83v2 G73C, NEM conjugate (designed binder, NEM on Cys 73, His-tagged) LPAPKNLVVSEVTEDSARLSWDDPWAFYESFLIQYQESEKVGEAIVLTVPGSERSYDLTGLKPGTEYTVSIYCVHNVYKDTNMRGLPLSAIFTT	0.02	0.21	0
P54AR4-83v2 G51C, NEM conjugate (designed binder, NEM on Cys 51, His-tagged) LPAPKNLVVSEVTEDSARLSWDDPWAFYESFLIQYQESEKVGEAIVLTVPCSERSYDLTGLKPGTEYTVSIYGVHNVYKDTNMRGLPLSAIFTT	1.03	0.92	0.88
P54AR4-83v2 D22C, NEM conjugate (designed binder, NEM on Cys 22, His-tagged) LPAPKNLVVSEVTEDSARLSWCDPWAFYESFLIQYQESEKVGEAIVLTVPGSERSYDLTGLKPGTEYTVSIYGVHNVYKDTNMRGLPLSAIFTT	1.02	0.9	0.84
P54AR4-83v2 G60C, NEM conjugate (designed binder, NEM on Cys 60, His-tagged) LPAPKNLVVSEVTEDSARLSWDDPWAFYESFLIQYQESEKVGEAIVLTVPGSERSYDLTCLKPGTEYTVSIYGVHNVYKDTNMRGLPLSAIFTT	1.02	0.93	0.86
P54AR4-83v2 E43C, NEM conjugate (designed binder, NEM on Cys 43, His-tagged) LPAPKNLVVSEVTEDSARLSWDDPWAFYESFLIQYQESEKVGCAIVLTVPGSERSYDLTGLKPGTEYTVSIYGVHNVYKDTNMRGLPLSAIFTT	1.04	0.92	0.68
P54AR4-83v2 E14C, NEM conjugate (designed binder, NEM on Cys 14, His-tagged) LPAPKNLVVSEVTCDSARLSWDDPWAFYESFLIQYQESEKVGEAIVLTVPGSERSYDLTGLKPGTEYTVSIYGVHNVYKDTNMRGLPLSAIFTT	1.27	1.15	1.11
P54AR4-83v2 E29C, NEM conjugate (designed binder, NEM on Cys 29, His-tagged) LPAPKNLVVSEVTEDSARLSWDDPWAFYCSFLIQYQESEKVGEAIVLTVPGSERSYDLTGLKPGTEYTVSIYGVHNVYKDTNMRGLPLSAIFTT	1.07	0.93	0.89
P54AR4-83v2 D15C, NEM conjugate (designed binder, NEM on Cys 15, His-tagged) LPAPKNLVVSEVTECSARLSWDDPWAFYESFLIQYQESEKVGEAIVLTVPGSERSYDLTGLKPGTEYTVSIYGVHNVYKDTNMRGLPLSAIFTT	1.09	0.97	0.98
P54AR4-83v2 F31C, NEM conjugate (designed binder, NEM on Cys 31, His-tagged) LPAPKNLVVSEVTEDSARLSWDDPWAFYESCLIQYQESEKVGEAIVLTVPGSERSYDLTGLKPGTEYTVSIYGVHNVYKDTNMRGLPLSAIFTT	0.34	0.62	0.04
P54AR4-83v2 E11C, NEM conjugate (designed binder, NEM on Cys 11, His-tagged) LPAPKNLVVSCVTEDSARLSWDDPWAFYESFLIQYQESEKVGEAIVLTVPGSERSYDLTGLKPGTEYTVSIYGVHNVYKDTNMRGLPLSAIFTT	1.08	0.95	0.9
P54AR4-83v2 F27C, NEM conjugate (designed binder, NEM on Cys 27, His-tagged) LPAPKNLVVSEVTEDSARLSWDDPWACYESFLIQYQESEKVGEAIVLTVPGSERSYDLTGLKPGTEYTVSIYGVHNVYKDTNMRGLPLSAIFTT	0.07	0.23	0
P54AR4-83v2 D80C, NEM conjugate (designed binder, NEM on Cys 80, His-tagged) LPAPKNLVVSEVTEDSARLSWDDPWAFYESFLIQYQESEKVGEAIVLTVPGSERSYDLTGLKPGTEYTVSIYGVHNVYKCTNMRGLPLSAIFTT	0.97	0.91	0.7
P54AR4-83v2 A26C, NEM conjugate (designed binder, NEM on Cys 26, His-tagged) LPAPKNLVVSEVTEDSARLSWDDPWCFYESFLIQYQESEKVGEAIVLTVPGSERSYDLTGLKPGTEYTVSIYGVHNVYKDTNMRGLPLSAIFTT	1.06	0.95	0.95
P54AR4-83v2 G85C, NEM conjugate (designed binder, NEM on Cys 85, His-tagged) LPAPKNLVVSEVTEDSARLSWDDPWAFYESFLIQYQESEKVGEAIVLTVPGSERSYDLTGLKPGTEYTVSIYGVHNVYKDTNMRCLPLSAIFTT	0.02	0.29	0.19
P54AR4-83v2 D23C, NEM conjugate (designed binder, NEM on Cys 23, His-tagged) LPAPKNLVVSEVTEDSARLSWDCPWAFYESFLIQYQESEKVGEAIVLTVPGSERSYDLTGLKPGTEYTVSIYGVHNVYKDTNMRGLPLSAIFTT	0.2	0.4	0.02
P54AR4-83v2 E53C, NEM conjugate (designed binder, NEM on Cys 53, His-tagged) LPAPKNLVVSEVTEDSARLSWDDPWAFYESFLIQYQESEKVGEAIVLTVPGSCRSYDLTGLKPGTEYTVSIYGVHNVYKDTNMRGLPLSAIFTT	1.02	0.91	0.91
P54AR4-83v2 G64C, NEM conjugate (designed binder, NEM on Cys 64, His-tagged) LPAPKNLVVSEVTEDSARLSWDDPWAFYESFLIQYQESEKVGEAIVLTVPGSERSYDLTGLKPCTEYTVSIYGVHNVYKDTNMRGLPLSAIFTT	1.42	1.36	1.28
